Measurements: article PMC9908020, “Structural basis of the transcription termination factor Rho engagement with transcribing RNA polymerase from Thermus thermophilus” (Science Advances, 2023)

B1: Thermus thermophilus transcription termination factor Rho (enzyme)
chain: MRRKETLQETPLTYQELASKILPELHLLAQEAGIEGYKRMKKDQLIMALLERQTQGEGLRLVKGYLEISQDGYGFLTENLHNLESRVAIVSAGLIKQYALRAGDYVVGQARPPRENERYATLLKVEAVNNLDPEAAKNRPRFDELTPQFPDRQIRLETTPDELSTRVIDLLAPIGRGQRGLIVAPPKAGKTTLLKKIANAVLKNEPDIKVIVLLIDERPEEVTDFRESVQGAEVIASTFDEPPQNHIRVAEFVHERAKRIVEEGGHVMILLDSITRLARANNLVTPPTGRTLSGGLDSAALYFPKRFLGAARNIRGGGSLTILATALVETGSRMDDVIFEEFKGTGNMELHLSRRLEERRIFPAIDILKSGTRREELLLGEEVTHKMWLLRKVLADMDPAEAMEMLLARLARTKNNKEFLASLAAR
notes: Transcription termination factor Rho, Thermus thermophilus; the C terminus is printed as Arg426; the model leaves out 59 residues at the N terminus; Closed-ring homo-hexamer with ADP·BeF3 at the protomer interfaces; RNA is threaded through the central channel in the RNAP complexes; also called wild-type Rho; Rho hexamer; not shown: His tag, N-terminal, cleaved
B2: Thermus thermophilus RNA polymerase ω subunit (natural protein)
chain: MAEPGIDKLFGMVDSKYRLTVVVAKRAQQLLRHGFKNTVLEPEERPKMQTLEGLFDDPNAVTWAMKELLTGRLVFGENLVPEDRLQKEMERLYPVEREE
notes: RNA polymerase ω subunit, Thermus thermophilus; It stood in the assay as a subunit of the RNAP complex m2; It was cloned in pET-47b, which may add a cleavable N-terminal His tag (surmise); source: E. coli Rosetta2 (DE3), coexpressed and purified as part of RNAP

Tests used:
[1] = molecular target: T1, T. thermophilus Rho (Thermus thermophilus, UniProt Q5SJE9); assay: Rho-dependent RNA release from immobilised RNAP elongation complex, urea-PAGE; assay type: biochemical; conditions: 1 mM ATP, 200 nM Rho, 10 mM MgCl2, pH 7.5, 65 °C; with T. thermophilus RNAP elongation complex
T1 construct: full-length (C terminus Arg426), N-terminal His-tag cleaved by HRV 3C; pET-47b in E. coli Rosetta2 (DE3); closed-ring homohexamer; model lacks 59 N-terminal residues

[2] = molecular target: the molecule itself; assay: cryo-EM structure; Rho-only class of the same sample: closed-ring hexamer with ADP·BeF3 between the protomers; C6 symmetry
[3] = molecular target: T2, Thermus thermophilus RNA polymerase lacking the β-flap tip helix (Thermus thermophilus, UniProt Q5SHR6 1-315; Q8RQE9 1-761; Q8RQE9 783-1119; Q8RQE8 1-1524; Q8RQE7 1-99); assay: cryo-EM structure; EC-Rho complex prepared with the β-flap tip-deleted RNAP; 2D class averages of ~3000 particles of the RNAP-Rho complex; conditions: both partners purified
T2 construct: RNA polymerase α subunit, Thermus thermophilus; RNA polymerase β subunit, Thermus thermophilus, up to the residue before the deleted β-flap tip helix (β762 to β782 removed); three alanine residues that fill the gap; RNA polymerase β subunit, Thermus thermophilus, from the residue after the deleted β-flap tip helix; RNA polymerase β′ subunit, Thermus thermophilus; RNA polymerase ω subunit, Thermus …

[4] = molecular target: T3, Thermus thermophilus RNA polymerase β′ subunit (Thermus thermophilus, UniProt Q8RQE8 1-1524); assay: cryo-EM structure; type 1 class: EC (RNAP with template DNA and 125-nt nascent RNA, gel filtered) mixed with Rho and 0.5 mM ADP·BeF3 in buffer C (20 mM Hepes-NaOH pH 7.5, 250 mM KCl, 5 mM MgCl2, 1% glycerol), cross-linked with 3 mM BS3; nascent RNA threaded into the Rho ring; conditions: both partners purified
T3 construct: RNA polymerase β′ subunit, Thermus thermophilus; It stood in the assay as a subunit of the RNAP complex m2; source: E. coli Rosetta2 (DE3), coexpressed and purified as part of RNAP

[5] = molecular target: T4, Thermus thermophilus RNA polymerase β subunit (Thermus thermophilus, UniProt Q8RQE9 1-1119); assay: as above; conditions: both partners purified
T4 construct: RNA polymerase β subunit, Thermus thermophilus; It stood in the assay as a subunit of the RNAP complex m2; source: E. coli Rosetta2 (DE3), coexpressed and purified as part of RNAP

[6] = molecular target: B1; assay: as above; conditions: both partners purified

Molecule: Nc1ncnc2c1ncn2[C@@H]1O[C@H](COP(=O)(O)OP(=O)(O)OP(=O)(O)O)[C@@H](O)[C@H]1O [ATP]
- Rho-dependent RNA release from immobilised RNAP elongation complex, urea-PAGE [1]: The RNA release is ATP dependent, as it did not occur in either the absence

Molecule: B1
- stoichiometry N [2]: 6
- binding result [3]: binds
- binding result [4]: binds
- binding result [5]: binds

Molecule: B2
- binding result [6]: binds
